Experimental data as given in article PMC7761207, “Molecular Characterization of the Burkholderia cenocepacia dcw Operon and FtsZ Interactors as New Targets for Novel Antimicrobial Design” (Antibiotics, 2020).
Read-outs that look alike come from different tables or passages of the source.

T1: MraZ (Burkholderia cenocepacia J2315) (UniProt B4E6K1)
T1 sequence: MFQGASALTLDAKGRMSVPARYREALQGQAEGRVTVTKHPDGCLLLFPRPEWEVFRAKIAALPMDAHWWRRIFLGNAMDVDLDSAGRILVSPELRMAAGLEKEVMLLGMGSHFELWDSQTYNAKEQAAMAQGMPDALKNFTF

B1: B. cenocepacia J2315 FtsA, BACTH hybrid (natural protein, Burkholderia cenocepacia J2315, UniProt B4E6I8 1-410, looked up)
chain: MSKDYKDLLVSLDIGTSKVVAIVAELKGEGHYEVIGLGQSESKGLKKGVVVNIEATVQSIQRALEEAELMADCKITNVFTGIAGSHIRSFNSSGMVAIKDKEVTQTDVARVIETAKAINIPTDQQVLHILTQEFIIDGQEDVREPIGMSGIRLEVKVHIVTGAVSAAQNIVKCVRRCGLEVNDLILQPLASSLAVLTEDEKDLGVVLVDIGGGTTDIAIFAEGAIRHTAVIPIAGDQITSDIAMALRTPTPDAEDIKVGYGIAKQALADPDEMVEVPGLGERGPRTLSRQALAAVIEPRVEELFSLVQQVVRESGYEELLSSGVVITGGASMMPGMVELGEDIFLKPVRIGAPEYAGGLSDVVRNPRYSTAMGLLVEGSAQRMRGRKVAVQSGNAGQVFSRMKEWFLSNF
notes: FtsA of Burkholderia cenocepacia J2315 (gene ftsA, BCAL3458); Cloned in all four BACTH vectors; source: bacterial two-hybrid (BACTH) fusion, E. coli BTH101
B2: B. cenocepacia J2315 FtsZ, BACTH hybrid (natural protein, Burkholderia cenocepacia J2315, UniProt B4E5Y7 1-398, looked up)
chain: MEFEMLETETNGTIIKVVGVGGAGGNAVQHMINRGVQGVDFIVMNTDAQALSRSRASSVIQLGNTGLGAGAKPEMGRAAAEEARERIADALRGAHMVFITAGMGGGTGTGAAPVVAQIAKEMGILTVGVVSKPFEFEGGKRMRVAEAGSQQLEDHVDSLIVVLNDKLFDVMGDDAEMDKCFQCADDVLNNAVAGIAEIINVDGLVNVDFEDVKTVMGEQGKAMMGTATVAGVDRARLAAEQAVASPLLEGVDLSGARGVLVNITSSRSLRLSETREVMNTIKSYAAEDATVIFGAVYDDAMGDALRVTVVATGLGRAAKKQQSAPMTLLRTGTDNQPVSAVSHGYAPAQHVSTADYGALDTPAVWRNSRETAASHVQALQEKGVDTYDIPAFLRKQAD
notes: FtsZ of Burkholderia cenocepacia J2315; gene amplified from genomic DNA; Cloned in all four BACTH vectors (pUT18, pUT18C, pKT25, pKNT25); by its place between BCAL3458 and BCAL3456 probably BCAL3457 (surmised); source: bacterial two-hybrid (BACTH) fusion, E. coli BTH101
B3: putative SulA (pBCA006) of B. cenocepacia J2315, BACTH hybrid (natural protein, Burkholderia cenocepacia J2315, UniProt B4EQP0 1-238, looked up)
chain: MHPALAHPEAIHPALWRASQLARPSVRGVDTGHLELTAELPGGGWPAGALIELLAPQPGIGELRLLAPVLARTAGKPVMLIQPPHALQPLALAYWGIDPSGFVTLPAPRTADALWAAEQALRAGTCAAVLLWQSHVRADALRRLNLAAQSGQALFYLFRPVAAARDASPAPLRLALAPKRDGIDVTFLKRRGPARDTPLFVPLSPSPILLNRHASLDRRASAAPQPRSVPATIAGAVA
notes: putative SulA, product of gene pBCA006 of Burkholderia cenocepacia J2315; Cloned in all four BACTH vectors; source: bacterial two-hybrid (BACTH) fusion, E. coli BTH101
B4: B. cenocepacia J2315 ZipA, BACTH hybrid (natural protein, Burkholderia cenocepacia J2315, UniProt B4ECN7 1-424, looked up)
chain: MDELTLGLIGAGAVVVGGVVVYNAWQGAKVRRRMPRPMPEEAAEAMNRPERDEELPFIEPVRQPVRREPAAPVAAATAAAETARVEPTFGGAAPADTPADLQAEATGVDTSAESSEPAAGEEAVPAATHDAAAEPAEPTEPVMPAATTVSSAPPAIVDRRIDCIVPIRLTGPLPGDKILPVAQRLRRAGSKPVHIEGKPEGGQWELLQNGVRYEELRAAAQLANRSGALNELEFSEFVTGVQQFADAIDGAPEFPDMMETVAMARELDAFAAQCDAQLSINVMSDGAPWSANYVQAVASQDGLLLSRDGTRFVKLDAKQNPVFMLQFGDTNFLRDDLTYKGGNMITLVLDVPVAEEDILPFRLMCDYAKSLSERIGARVVDDSRRPLPESTLLAIEQQLMKLYAKLEEAGIPAGSPVTRRLFSQ
notes: ZipA of Burkholderia cenocepacia J2315 (gene zipA, BCAL2097); Cloned in all four BACTH vectors; source: bacterial two-hybrid (BACTH) fusion, E. coli BTH101

Tests used:
[1] = biological target: T1, MraZ (Burkholderia cenocepacia J2315); assay: competition; settings: 20 mM Tris-HCl pH 7.5, 100 mM NaCl, 5 mM MgCl2, 0.1 mM DTT, 150 ng/uL BSA, 50 ng/uL herring sperm DNA, 30 min 37 C; 1.5% agarose in 0.5x TBE at 4 C
[2] = biological target: T1, MraZ (Burkholderia cenocepacia J2315); assay: EMSA; settings: 20 mM Tris-HCl pH 7.5, 100 mM NaCl, 5 mM MgCl2, 0.1 mM DTT, 150 ng/uL BSA, 50 ng/uL herring sperm DNA, 30 min 37 C; 1.5% agarose in 0.5x TBE at 4 C
[3] = biological target: B. cenocepacia FtsZ, protein of the sedimentation assays (Burkholderia cenocepacia); assay: co-sedimentation; with vesicles of E. coli total lipid extract (2 mg/mL); proteins 12 uM, 25 mM PIPES pH 6.8, 10 mM MgCl2, 2 mM GTP and/or ATP; 10 min 30 C; 20,000 x g 25 min 20 C
[4] = biological target: B2; assay: two-hybrid; BACTH (bacterial adenylate cyclase two-hybrid) in E. coli cya strain BTH101; T18 and T25 hybrids; beta-galactosidase on LB-IPTG-X-Gal and MacConkey plates and in liquid culture, 30 C; at least four-fold over BTH101(pUT18/pKT25) counted as an interaction
[5] = biological target: B1; assay: as above
[6] = biological target: B. cenocepacia J2315 FtsZ, BACTH hybrid (Burkholderia cenocepacia J2315) (UniProt B4E5Y7); assay: as above
[7] = biological target: the molecule itself; assay: as above

“AAGTTGCACTAGCTCATTCATTTATAACGGTTTTTGGAATGAGGGGTCGCATGAGCATGTGCGCGTAAGTCCTTGTTCTAACTAACAAAATTCGTCAAAAAAGCGGGCCGCTCCCTTGACCGTGCCACACCCTTCCTCTAAAGTGGGAGACAGTGTGAGAAAGTGTATTTTTGTGTGATTTAGCAGGCTATTCCGGCTAAATTCTCAGCATTGAGCGGGTGCTTCGGTGCCCTGAACGGGAGAGCGGAAA (double strand) [BS2 unlabeled]” was tested, and the binding [1] was “binds”.

“AAGTTGCACTAGCTCATTCATTTATAACGGTTTTTGGAATGAGGGGTCGCATGAGCATGTGCGCGTAAGTCCTTGTTCTAACTAACAAAATTCGTCAAAAAAGCGGGCCGCTCCCTTGACCGTGCCACACCCTTCCTCTAAAGTGGGAGACAGTGTGAGAAAGTGTATTTTTGTGTGATTTAGCAGGCTATTCCGGCTAAATTCTCAGCATTGAGCGGGTGCTTCGGTGCCCTGAACGGGAGAGCGGAAA (double strand) [BS2-6-Fam]” was tested, and the binding [2] was “binds”.

For “B. cenocepacia FtsZ, protein of the sedimentation assays (natural protein)”, the percent of the protein in the pellet fraction [3] was 50%.

“B. cenocepacia J2315 FtsE, BACTH hybrid (natural protein)” gave a β-galactosidase activity, fold over the control strain [4] of 50 fold.

“B. cenocepacia J2315 FtsN, BACTH hybrid (natural protein)” showed a β-galactosidase activity, fold over the control strain [5] of 5 fold.

Molecule “B. cenocepacia J2315 FtsQ, BACTH hybrid (natural protein)” has a β-galactosidase activity, fold over the control strain [6] of 16 fold.

Molecule “B. cenocepacia J2315 ZapA, BACTH hybrid (natural protein)” has a β-galactosidase activity, fold over the control strain [4] of 10 fold.

In the case of “GGAGCGGCCCGCTTTTTTGACGAATTTTGTTAGTTAGAACAAGGACTTACGCGCACATGCTCATGCGACCCCTCATTCCAAAAACCGTTATAAATGAATGAGCTAGTGCAACTTGTGAAGGTGATACGTGAGAAAGACGGCCCAGACGGGCGTGCGGACGGGGCTTTCGGGGGCGGGAAAACGAGGAGTGAGCGGGCGGTATCGGGGGCGGTGAACCGGGGCGGCGTCCCACGCCACCCCGGCGCCAATC (double strand) [BS1-6-Fam]”, the binding [2] is reported as “no binding”.

With B1 the “β-galactosidase activity, fold over the control strain” value (shortened to “β-galactosidase activity, fold”) ([4]; partners not purified) was 5 fold.

B2 was tested, and the “β-galactosidase activity, fold” value [7] was 5 fold.

In the case of B3, the “β-galactosidase activity, fold” value ([4]; partners not purified) is reported as 25 fold.

In the case of B4, the “β-galactosidase activity, fold” value ([4]; partners not purified) is reported as 4.5 fold and the “β-galactosidase activity, fold” value ([5]; partners not purified) is reported as 32 fold.
